Measured values: article PMC10286459, “The development of an anti-cancer peptide M1-21 targeting transcription factor FOXM1” (Cell & Bioscience, 2023)

How the values were obtained:
[1] = target: GFP-FOXM1(688-748) (human); experiment: MST; GFP-fused FOXM1 protein as the fluorescent partner, synthesized peptide varied from 0.030 to 1000 µM; PBST (1×PBS 0.01 M, 0.05% Tween-20); 25 °C; Monolith NT.115, LED power 60%, medium MST power
GFP-FOXM1 (human) = GFP-FOXM1 (human) (UniProt Q08050); experiment: as above
[2] = target: endogenous FOXM1 protein (human (endogenous in 293T and MDA-MB-231)) (UniProt Q08050)
[3] = target: endogenous FOXM1 protein (human (endogenous in 293T and MDA-MB-231)) (UniProt Q08050); remark: listed apart in the source

Sequence of endogenous FOXM1 protein (human (endogenous in 293T and MDA-MB-231)) (Q08050 whole entry): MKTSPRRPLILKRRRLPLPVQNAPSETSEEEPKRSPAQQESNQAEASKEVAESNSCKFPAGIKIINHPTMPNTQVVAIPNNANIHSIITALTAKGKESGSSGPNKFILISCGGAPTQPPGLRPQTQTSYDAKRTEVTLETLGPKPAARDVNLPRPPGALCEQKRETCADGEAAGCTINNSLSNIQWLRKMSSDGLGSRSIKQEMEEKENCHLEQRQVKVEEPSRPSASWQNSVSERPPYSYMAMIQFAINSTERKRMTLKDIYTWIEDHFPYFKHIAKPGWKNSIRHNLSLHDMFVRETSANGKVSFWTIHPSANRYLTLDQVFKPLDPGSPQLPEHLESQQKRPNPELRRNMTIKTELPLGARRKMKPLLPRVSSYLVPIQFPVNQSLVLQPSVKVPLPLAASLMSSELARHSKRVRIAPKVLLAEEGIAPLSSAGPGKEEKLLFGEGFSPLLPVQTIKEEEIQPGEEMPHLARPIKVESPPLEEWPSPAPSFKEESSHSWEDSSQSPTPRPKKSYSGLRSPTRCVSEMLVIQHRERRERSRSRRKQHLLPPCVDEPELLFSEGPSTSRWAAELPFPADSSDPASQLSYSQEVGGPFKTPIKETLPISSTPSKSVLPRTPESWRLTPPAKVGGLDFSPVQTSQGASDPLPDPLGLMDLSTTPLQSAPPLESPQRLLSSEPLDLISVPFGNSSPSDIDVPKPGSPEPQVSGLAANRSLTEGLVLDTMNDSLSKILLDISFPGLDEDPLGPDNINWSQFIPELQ
Sequence of GFP-FOXM1 (human) (Q08050 other isoform, or with tags, fused parts or gaps): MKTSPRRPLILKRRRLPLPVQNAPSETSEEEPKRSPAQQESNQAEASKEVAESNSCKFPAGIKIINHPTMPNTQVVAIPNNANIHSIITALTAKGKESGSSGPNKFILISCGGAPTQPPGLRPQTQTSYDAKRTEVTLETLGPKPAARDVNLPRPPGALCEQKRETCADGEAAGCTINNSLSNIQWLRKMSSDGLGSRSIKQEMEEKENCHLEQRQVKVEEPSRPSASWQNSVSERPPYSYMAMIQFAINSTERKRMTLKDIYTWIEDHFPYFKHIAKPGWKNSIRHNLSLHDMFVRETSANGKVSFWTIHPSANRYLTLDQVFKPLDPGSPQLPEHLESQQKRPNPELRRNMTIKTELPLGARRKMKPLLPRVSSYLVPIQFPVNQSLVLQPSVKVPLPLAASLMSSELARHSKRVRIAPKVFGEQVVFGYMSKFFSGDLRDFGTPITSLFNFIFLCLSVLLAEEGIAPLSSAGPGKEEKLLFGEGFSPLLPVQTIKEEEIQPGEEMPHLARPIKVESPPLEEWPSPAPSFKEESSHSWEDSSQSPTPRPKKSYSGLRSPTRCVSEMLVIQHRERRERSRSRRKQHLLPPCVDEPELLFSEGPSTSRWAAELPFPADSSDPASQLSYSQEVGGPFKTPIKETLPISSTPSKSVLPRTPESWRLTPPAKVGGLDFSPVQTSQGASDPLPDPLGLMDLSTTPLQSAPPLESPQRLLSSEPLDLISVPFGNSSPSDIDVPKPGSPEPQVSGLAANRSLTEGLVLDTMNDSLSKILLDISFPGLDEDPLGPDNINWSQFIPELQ

Substance	Kd [1] [µM]	Kd (GFP-FOXM1 (human)) [µM]	IC50 of cell viability, MDA-MB-231 cells, 48 h (trypan blue; Fig. 2C) [2] [µM]	IC50 of cell viability, MDA-MB-231 cells, 48 h (trypan blue) [3] [µM]
TAT-96-116 (from UniProt Q08050 96-116) (peptide)	2.8			
TAT-101-121 (from UniProt Q08050 101-121) (peptide)	5.5			
TAT-106-126 (from UniProt Q08050 106-126) (peptide)	3.9	7.1	54.3	53.4
